This is an account of results in US20180134756A1 (NATIONAL INSTITUTE OF ADVANCED INDUSTRIAL SCIENCE AND …, published 2018).

This experiment concerns the target T1, Aleuria Aurantia Lectin (AAL) (Aleuria aurantia, UniProt P18891 2-313).
T1 construct: Used as the probe in lectin blotting
T1 sequence (looked up): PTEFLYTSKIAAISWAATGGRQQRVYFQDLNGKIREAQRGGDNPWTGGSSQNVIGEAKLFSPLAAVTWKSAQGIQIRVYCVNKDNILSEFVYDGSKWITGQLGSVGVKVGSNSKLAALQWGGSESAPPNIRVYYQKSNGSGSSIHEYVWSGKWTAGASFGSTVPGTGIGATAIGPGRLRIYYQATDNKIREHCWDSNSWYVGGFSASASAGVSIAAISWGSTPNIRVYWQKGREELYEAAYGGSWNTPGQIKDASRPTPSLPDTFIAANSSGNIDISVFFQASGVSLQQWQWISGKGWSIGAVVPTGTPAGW
The experiment in a line: lectin blotting. How it is done: It was reported that the natural WFA (nWFA) has a sugar chain including fucose, and thus, the lectin blotting was performed using Aleuria Aurantia Lectin (AAL) recognizing fucose. As a result, it was confirmed that the nWFA was a glycoprotein including a sugar chain that reacted to AAL (FIGS. 5A and 5B).

B1: natural Wisteria floribunda lectin (nWFA), purified, purchased from Vector Lab (other)
chain: KETTSFVFTRFSPDPQNLLLQGDTVVTSSGHLQLTQVKDGEPVYSSLGRALYYAPIHIWDSNTDTVANFVTSFSFVIDAPNKAKAADGLAFFLAPVDTEPQKPGGLLGLFHDDRHNKSNHIVAVEFDTFKNSWDPEGTHIGINVNSIVSRKTTSWDLENGEVANVVISYQASTKTLTASLVYPSSSTSYILNDVVDLKQILPEYVRVGFTAASGLSKDHVETHDVLAWTFDSDLPDPSSDDCN
modifications: one N-glycan (fucose-containing) expected at Asn146; disulfide bond between the two Cys272
notes: Lectin purified from seeds; Disulfide-linked dimer of about 60 KDa; also called natural WFA; nature-derived WFA
On to B1, for which the binding result is “binds”.
